Source: patent US20250270273A1 (NEKTAR THERAPEUTICS, published 2025)
Numbering of substitutions follows the chain as printed. Numbers in names are those of the source.

T1: IFN-γ receptor (IFNGR; IFNGR1 and IFNGR2) on human cells (human) (UniProt P15260)
T1 sequence (looked up) 1: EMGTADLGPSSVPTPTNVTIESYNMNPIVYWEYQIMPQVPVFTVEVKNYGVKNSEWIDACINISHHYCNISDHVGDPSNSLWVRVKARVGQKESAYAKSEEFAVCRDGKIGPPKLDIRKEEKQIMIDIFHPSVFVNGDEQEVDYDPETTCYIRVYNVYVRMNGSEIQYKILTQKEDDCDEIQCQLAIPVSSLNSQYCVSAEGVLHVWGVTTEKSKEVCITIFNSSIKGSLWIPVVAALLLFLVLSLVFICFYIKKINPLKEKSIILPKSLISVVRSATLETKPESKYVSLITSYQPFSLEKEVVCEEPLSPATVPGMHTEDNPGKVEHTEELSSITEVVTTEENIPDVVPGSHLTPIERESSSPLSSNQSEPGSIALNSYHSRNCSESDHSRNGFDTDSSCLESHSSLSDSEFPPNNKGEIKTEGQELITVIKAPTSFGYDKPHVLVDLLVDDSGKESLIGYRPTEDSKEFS
T1 sequence (looked up) 2: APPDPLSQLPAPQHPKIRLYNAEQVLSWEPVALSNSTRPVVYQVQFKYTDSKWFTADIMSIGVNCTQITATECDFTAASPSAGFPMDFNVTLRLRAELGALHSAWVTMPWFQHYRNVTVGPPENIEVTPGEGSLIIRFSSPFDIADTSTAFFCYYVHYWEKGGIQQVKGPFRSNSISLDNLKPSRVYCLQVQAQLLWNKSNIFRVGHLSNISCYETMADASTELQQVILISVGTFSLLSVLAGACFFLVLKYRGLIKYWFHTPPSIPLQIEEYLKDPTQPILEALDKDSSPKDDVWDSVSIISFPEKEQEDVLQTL

T2: IFNγR1 fused to the constant region of the antibody IgG1 (UniProt P15260 18-245, limits assumed)
T2 construct: also called IFNGR1; Interferon gamma receptor 1 fused to the Fc region; not shown: constant region (Fc) of IgG1, captured on the chip by an anti-human IgG antibody
T2 sequence (looked up): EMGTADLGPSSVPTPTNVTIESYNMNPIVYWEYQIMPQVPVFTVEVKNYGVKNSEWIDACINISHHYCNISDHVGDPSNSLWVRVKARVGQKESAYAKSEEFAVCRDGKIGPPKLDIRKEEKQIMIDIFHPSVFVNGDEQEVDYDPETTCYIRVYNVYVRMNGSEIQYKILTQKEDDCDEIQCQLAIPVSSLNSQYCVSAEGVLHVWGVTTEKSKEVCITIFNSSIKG

T3: IFN-γ receptor (IFNGR; IFNGR1 and IFNGR2) on human cells (human, UniProt P15260 18-489; P38484 22-337)
T3 sequence (looked up) 1: T1 sequence (looked up) 1
T3 sequence (looked up) 2: T1 sequence (looked up) 2

B1: rhIFN-γ-1b (wild-type recombinant human interferon-γ-1b) (ligand)
chain: MQDPYVKEAENLKKYFNAGHSDVADNGTLFLGILKNWKEESDRKIMQSQIVSFYFKLFKNFKDDQSIQKSVETIKEDMNVKFFNSNKKKRDDFEKLTNYSVTDLNVQRKAIHELIQVMAELSPAAKTGKRKRSQMLFRGR
notes: also called wt (rhIFN-γ-1b); WT IFN-γ-1b (Actimmune)
B2: Compound 3, mono-mPEG2-ru-MAL-20K-rhIFN-γ-1b-M135C (ring closed) (ligand)
chain: B1 chain with M135C
modifications: Cys135 thioether-linked to branched mPEG2-maleimide of about 20,000 daltons (mPEG2-MAL-20K), succinimide ring closed
notes: also called mPEG2-MAL-20K-M135C-IFN-γ; M135C 20K branched (RC)
B3: rhIFN-γ-1b-S66C cysteine mutein (ligand)
chain: B1 chain with S66C
notes: also called IFN-γ-S66C; hIFN-γ S66C
B4: rhIFN-γ-1b-N98C cysteine mutein (ligand)
chain: B1 chain with N98C
B5: Compound 2, mono-mPEG-MAL-20K-rhIFN-γ-1b-M135C (ligand)
chain: B1 chain with M135C
modifications: Cys135 thioether-linked to linear mPEG-maleimide of about 20,000 daltons (mPEG-MAL-20K), succinimide ring closed
notes: also called mPEG-MAL-20K-M135C-IFN-γ; M135C 20K linear
B6: rhIFN-γ-1b-M135C cysteine mutein (ligand)
chain: B1 chain with M135C
notes: also called IFN-γ-M135C; hIFN-γ M135C
B7: Compound 1, mono-mPEG-MAL-10K-rhIFN-γ-1b-M135C (ligand)
chain: B1 chain with M135C
modifications: Cys135 thioether-linked to linear mPEG-maleimide of about 10,000 daltons (mPEG-MAL-10K), succinimide ring closed
notes: also called mPEG-MAL-10K-M135C-IFN-γ; M135C 10K linear

Experiments:
[1] = target: T1, IFN-γ receptor (IFNGR; IFNGR1 and IFNGR2) on human cells (human); test: cell-based or functional assay
[2] = target: T2, IFNγR1 fused to the constant region of …; test: SPR (Biacore, CM5 chip), IFNγR1-IgG1 Fc captured by anti-human IgG, analyte injected
Method: Briefly, the surface of a BAcore™ CM5 sensor chip was coated with anti-human IgG antibody comprising IFNγR1 fused to the constant region of the antibody IgG₁.
Each of the IFN-γ-b protein, the M135C, S98C, and S66C cysteine muteins, and Compounds 1, 2, and 3 were separately injected onto the sensor chip which was coated with IFNγR1. The affinities were measured by determining the kinetic on-rate (kₒₙ) and the kinetic off-rate (koff) rates separately, and the ratio between kₒₙ and koff was used to calculate the Kd values with the results shown in Table 9.

[3] = target: T3, IFN-γ receptor (IFNGR; IFNGR1 and …); test: cell-based or functional assay
[4] = target: T3, IFN-γ receptor (IFNGR; IFNGR1 and …); test: cell-based or functional assay; remark: listed apart in the source
[5] = target: T2, IFNγR1 fused to the constant region of …; test: SPR (Biacore, CM5 chip), IFNγR1-IgG1 Fc captured by anti-human IgG

| Molecule | Kd [2] [nM] | koff [2] [s⁻¹] | kon [2] [M⁻¹ s⁻¹] | EC50 (ng/mL)-% pSTAT1, CD14+CD16+ (Intermediate) monocytes of human PBMCs [3] [ng/mL] | EC50 (ng/mL)-% pSTAT1, CD14+CD16- (Classical) monocytes of human PBMCs [3] [ng/mL] | EC50 (ng/mL)-% pSTAT1, CD14loCD16hi (Non-classical) monocytes of human PBMCs [3] [ng/mL] | EC50 (ng/mL)-MFI of pSTAT1, Classical monocytes of human PBMCs [3] [ng/mL] | EC50 (ng/mL)-MFI of pSTAT1, Intermediate monocytes of human PBMCs [3] [ng/mL] | EC50 (ng/mL)-MFI of pSTAT1, Non-classical monocytes of human PBMCs [3] [ng/mL] | EC50 in HT-29 cells, MHCI [4] [ng/mL] | EC50 in HT-29 cells, MHCII [4] [ng/mL] | EC50 in HT-29 cells, PD-L1 [4] [ng/mL] | EC50 in HT-29 cells, pSTAT1 [4] [ng/mL] | also measured |
| --- | --- | --- | --- | --- | --- | --- | --- | --- | --- | --- | --- | --- | --- | --- |
| Compound 5, mono-mPEG2-MAL-20K-rhIFN-γ-1b-S66C (from UniProt P01579 24-162) (ligand) |  |  |  |  |  |  |  |  |  |  |  |  |  | EC50 in HT-29 cells, MHCI [1]: 0.023 ng/mL; EC50 in HT-29 cells, MHCII [1]: 0.27 ng/mL; EC50 in HT-29 cells, PD-L1 [1]: 0.37 ng/mL; EC50 in HT-29 cells, pSTAT1 [1]: 1.3 ng/mL |
| Compound 4, mono-mPEG2-MAL-40K-rhIFN-γ-1b-M135C (from UniProt P01579 24-162) (ligand) |  |  |  |  |  |  |  |  |  |  |  |  |  | EC50 (ng/mL)-% pSTAT1, CD14+CD16+ (Intermediate) monocytes of human PBMCs [1]: 10.1 ng/mL; EC50 (ng/mL)-% pSTAT1, CD14+CD16- (Classical) monocytes of human PBMCs [1]: 32.6 ng/mL; EC50 (ng/mL)-% pSTAT1, CD14loCD16hi (Non-classical) monocytes of human PBMCs [1]: 11.7 ng/mL; EC50 (ng/mL)-MFI of pSTAT1, Classical monocytes of human PBMCs [1]: 152 ng/mL; EC50 (ng/mL)-MFI of pSTAT1, Intermediate monocytes of human PBMCs [1]: 84.2 ng/mL; EC50 (ng/mL)-MFI of pSTAT1, Non-classical monocytes of human PBMCs [1]: 97.5 ng/mL; EC50 in HT-29 cells, MHCI [1]: 0.3 ng/mL; EC50 in HT-29 cells, MHCII [1]: 3.1 ng/mL; EC50 in HT-29 cells, PD-L1 [1]: 3.6 ng/mL; EC50 in HT-29 cells, pSTAT1 [1]: 180 ng/mL |
| Compound 7, ring-opened mono-mPEG2-MAL-20K-rhIFN-γ-1b-M135C (from UniProt P01579 24-162) (ligand) |  |  |  |  |  |  |  |  |  |  |  |  |  | EC50 in HT-29 cells, MHCI (Compound 7 (1)) [1]: 5.3 ng/mL; EC50 in HT-29 cells, MHCII (Compound 7 (1)) [1]: 150 ng/mL; EC50 in HT-29 cells, PD-L1 (Compound 7 (1)) [1]: 190 ng/mL; EC50 in HT-29 cells, pSTAT1 (Compound 7 (2)) [1]: 969 ng/mL |
| Compound 6, mono-mPEG2-MAL-20K-rhIFN-γ-1b-N98C (from UniProt P01579 24-162) (ligand) |  |  |  |  |  |  |  |  |  |  |  |  |  | EC50 in HT-29 cells, MHCI [1]: 0.047 ng/mL; EC50 in HT-29 cells, MHCII [1]: 0.86 ng/mL; EC50 in HT-29 cells, PD-L1 [1]: 1.3 ng/mL; EC50 in HT-29 cells, pSTAT1 [1]: 1.2 ng/mL |
| B1 | 0.0655 | 0.000701 | 1.07e+07 | 0.015 | 0.035 | 0.018 | 0.3 | 0.24 | 0.26 | 0.079 | 0.53 | 0.69 | 1 |  |
| B2 | 4.9 | 0.00157 | 321000 | 4.38 | 14 | 4.84 | 64.2 | 32.7 | 35 | 0.17 | 1.8 | 2.2 | 89 |  |
| B3 | 0.534 | 0.00137 | 2.57e+06 |  |  |  |  |  |  |  |  |  | 1.5 |  |
| B4 |  |  |  |  |  |  |  |  |  |  |  |  | 1.7 |  |
| B5 | 1.88 | 0.00106 | 637000 | 0.179 | 1.45 | 0.367 | 7.62 | 4.28 | 4.57 | 0.076 | 0.7 | 1.2 | 14 |  |
| B6 | 0.123 |  |  |  |  |  |  |  |  |  |  |  | 1.4 |  |
| B7 | 1.42 | 0.00221 | 1.61e+06 | 0.084 | 0.222 | 0.106 | 2.16 | 0.85 | 0.99 | 0.099 | 0.83 | 1.1 | 11 | fold decrease in affinity against IFN-γ-M135C [5]: ~10 fold |
